± gives the uncertainty stated by the source.

This series in a line: amyloid nucleation score (Sup35N fusion, yeast selection) (log enrichment); library NNK3; higher = more nucleation; inactive = no reads after selection. A digest of the protocol: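 Psi-negative yeast expressed Sup35N fused to peptides of 20 random codons. They were induced 24 hours with 100 μM copper sulfate, grown 7 days at 30°C without adenine and uracil, and their plasmid inserts from input and output were Illumina-sequenced. The nucleation score is the DiMSum log enrichment of output over input reads, centred on the mode score of non-aggregating sequences. Sequences with under 100 input reads were excluded.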
Take VFICSAVTNNSWCERLDFSA: the amyloid nucleation score stood at 1.5 ± 0.14.

With AITHL, the amyloid nucleation score entry is “inactive”. The result for ISSNLLHAVWYSHEPGW reads 1.81 ± 0.061; that for WIMPLDQ, “inactive”. The result for ISGKCRIVAVESSCECSLSS reads “inactive”. In the case of HHLSTRINCIDRVRSPNLRL it was -0.708 ± 1.4; in that of SCLSNIVFFFPCQCRSMIFS, 1.99 ± 0.063; in that of DSKQNYLIRVDRLFMECGLK, “inactive”. With RISINGFNNLNYLLS, the amyloid nucleation score stood at 1.39 ± 0.1.

For the substance HFNPPYRMFPHYVLLMNMYL, the amyloid nucleation score result is “inactive”.

With VNFRIKAIVVSLRGYDWLSG, the amyloid nucleation score stood at 0.287 ± 0.67.

As to VAFYMMYSSGPQRTRRWVTV, the amyloid nucleation score result was “inactive”. In the case of SRGVRIDKMVWNVIGFCHGW it was 2.8 ± 0.08; in that of IFDLWLRLYSLANYNGSFVT, “inactive”. In the case of FLSLWLCSRCVSKSCGGFML it was “inactive”. In the case of LFVCRLMENLEGY it was “inactive”.

Regarding LSLNSEVFGLSSTSNTVPFD, the amyloid nucleation score entry is “inactive”. The result for CIFCRFFKVLVGHSYL reads “inactive”; that for IPLLQCNIERYISLFVLVVG, “inactive”; that for SCQSGMSLCLSDHRLA, “inactive”. Turning to TWSRRGSGAPACVVVTWVPA, the amyloid nucleation score entry is “inactive”. Consider FNSDKMAPLTGLCEVVRFGR, for which the amyloid nucleation score entry was “inactive”. The result for EVVVELIMLS reads “inactive”; that for FVTQFVEN, “inactive”; that for VGHIRVLDEDNNYMSFYDMR, “inactive”. With NVILYGKNLS, the amyloid nucleation score result was “inactive”.

With PSYNCFTKFVADQTVTLRFS, the amyloid nucleation score result was “inactive”.

With GALMCPPRLVS, the amyloid nucleation score entry was “inactive”.

Consider GIHHFF, for which the amyloid nucleation score result is “inactive”.

Regarding TCCYRYYLLILAVSGVFIDT, the amyloid nucleation score entry was “inactive”. In the case of FKLWWIKCCMHPLMMHVAWM it was -0.036 ± 0.27. The result for HLRDMQRSQNLVG reads “inactive”; that for SPAQDQLAVRWVGVDRMMWW, -0.434 ± 0.86; that for GYRSCCCEKLRSRSCGSSWA, “inactive”.

For WEWVRPFFLLGYAPEPNITI, the amyloid nucleation score stood at 0.232 ± 0.48. The result for VTWAAMWASRRVIQVITLRL reads “inactive”; that for VHHEILHHGLFGEMSCVVEC, “inactive”.

As to GFEDSSIT, the amyloid nucleation score entry was “inactive”.

Regarding WFVQLSRMWFYANGNCPV, the amyloid nucleation score entry was “inactive”. In the case of IGCCFSVLKNLLFSFDVKQF, the amyloid nucleation score entry was “inactive”. The result for RRGRPVLCRLHPGRWLRSRR reads -0.401 ± 1.8; that for IFINRKE, -0.431 ± 0.76; that for LVHDLDLCSPGVSYQKSRMS, “inactive”.

Regarding CSSGYIQKMVSRYMSYGYHF, the amyloid nucleation score result is “inactive”. The substance IRSRTVTWQQWQLHSRNGRS returned an amyloid nucleation score of 0.086 ± 0.56. The result for GSSWCLTLWLKNSLATVQTQ reads “inactive”; that for DYNDCIKISIFLLYSPLIWC, 1.79 ± 0.1. For the substance RYYDLVSGSWWIYFG, the amyloid nucleation score entry was “inactive”. In the case of VYAVIDWRDLCF it was “inactive”; in that of VCSMWSSSSMIKLRALDDYM, “inactive”. The result for VHDRSLHLVGY reads -0.841 ± 1.2.

With ISDPRLGKVPLWDMSSIVYV, the amyloid nucleation score result is “inactive”. The result for LVRRHSFSGYRRDT reads “inactive”; that for WYRYSGGYNWP, 0.396 ± 0.29; that for RNANSNWSRPVLNAWSLNEV, “inactive”. In the case of LFLRDNF it was “inactive”; in that of RKHLRPQSMRVDSGETLRVL, “inactive”.

As to MILILY, the amyloid nucleation score result was “inactive”.

KFLPGCCFYMRIMSQVSLKN: the amyloid nucleation score entry was “inactive”. With VSRGDTINIISSVDCVKTYF, the amyloid nucleation score result was “inactive”. In the case of AQALRSVPEVWGEFTRSS it was “inactive”. In the case of ILDMSERFQILNNFR it was “inactive”; in that of DGNFNQRYAHLDRSGCWL, “inactive”; in that of YSMVFHTWCMRVMRGVFIWM, “inactive”.

In the case of IVVCRKEDSAQRFSFVRLSD, the amyloid nucleation score entry is “inactive”. The result for LKNPARYYYVVQIFMVLSTA reads “inactive”.

Consider GCSRHYKFS, for which the amyloid nucleation score entry is “inactive”. In the case of MMGIGVACYVKCGFFVYNWG, the amyloid nucleation score entry was “inactive”. In the case of VGNWYGKTIGMSSLEFLMSR it was “inactive”; in that of LRVYLLAWL, 0.781 ± 0.16.

With KQTFKYTGVDHTVT, the amyloid nucleation score result was “inactive”. The result for VLRYWRRLGQYTAGSYPEVL reads “inactive”; that for CVHYRFMLSRLYMILVPLTY, “inactive”. The result for HMCRTSCDRFGAIPNFMHWS reads “inactive”. In the case of FTNYRSRGNMVRGGPCRPSY it was “inactive”; in that of NLSSCIFVVS, “inactive”.

Consider GVFWLLNICQYGPRLRHMWS, for which the amyloid nucleation score entry is “inactive”. The result for GYQDSIGFSSR reads “inactive”; that for FGMGKRLSNENMPLVSCTGL, “inactive”; that for SVYYTPCAFFRLIEGNLEGL, “inactive”. As for MVSGH, the amyloid nucleation score entry was “inactive”.

Substance RRSISGKVLFTRIQSYLLKF registered an amyloid nucleation score of -0.759 ± 1.

For WLLFDPVGVVKQSLVARNSY, the amyloid nucleation score result was “inactive”. The result for PLIWCWKIVGRAWFAESRIL reads “inactive”.

VFYIYSRW gave an amyloid nucleation score of 1.69 ± 0.091.

For the substance YAATRW, the amyloid nucleation score entry is “inactive”.

In the case of LWSCPTDFRMCSVWLTLRVS, the amyloid nucleation score entry is “inactive”. In the case of RVTGTCGFRRDGFESWRNTR it was “inactive”; in that of VNSLNHYYLIPCARFEPEG, “inactive”; in that of YKFIRFFSSMT, “inactive”. As to TCHLILRVFGSYNMHGS, the amyloid nucleation score is -0.024 ± 0.96.

For the substance WSSTRLPSMSPCGFIHQGYI, the amyloid nucleation score entry is “inactive”. The result for NCQLLKLDSGSLSLCRWVHS reads “inactive”; that for RLDGCM, “inactive”.

With LQTFDYQRVWNKCLSEFSLE, the amyloid nucleation score result is “inactive”. In the case of MVVIIFDWIPHLFNLYMYVI it was “inactive”.

As for RTVIGLPASMLLSCDHISFV, the amyloid nucleation score result was “inactive”.

For the origin of these results see the supplement of paper PMC12042874.
